In publication doi:10.1101/2021.09.08.459485 (2021):

T1: SARS-CoV-2 Spike protein peptide on HLA-DPB1*04:01 (human)
T1 peptide: TFEYVSQPFLMDLE

T2: SARS-CoV-2 Spike protein peptide on HLA-DPB1*04:01 (human)
T2 peptide: CTFEYVSQPFLMDLE

B1: TCR4.1 (TCR)
alpha TRAV35 TRAJ42 CDR3: CAGMNYGGSQGNLIF
beta TRBV4-1 TRBJ1-2 CDR3: CASSQGVGYTF
B2: TCR6.3 (TCR)
alpha TRAV35 TRAJ42 CDR3: CAGMNYGGSQGNLIF
beta TRBV6-3 TRBJ1-2 CDR3: CASSYRGAYGYTF

Experiments:
[1] = biological target: T1, SARS-CoV-2 Spike protein peptide on …; experiment: multimer staining
[2] = biological target: T2, SARS-CoV-2 Spike protein peptide on …; experiment: activation reporter or marker

Binder | binding result [1] | binding result [2]
B1 | recognises | recognises
B2 | recognises | recognises
